In paper PMC11480844:

B1: H2-Kb / B16 (parent)
chain 1: QQQVRQSPQSLTVWEGGTTVLTCSYEDSTFNYFPWYQQFPGEGPALLISILSVSDKKEDGRFTTFFNKREKKLSLHIIDSQPGDSATYFCAARGSALGRLHFGAGTQLIVIP
chain 2: EAAVTQSPRSKVAVTGGKVTLSCHQTNNHDYMYWYRQDTGHGLRLIHYSYVADSTEKGDIPDGYKASRPSQENFSLILELASLSQTAVYFCASSDGTNQAPLFGEGTRLSVL
chain 3: not shown
chain 4: IQKTPQIQVYSRHPPENGKPNILNCYVTQFHPPHIEIQMLKNGKKIPKVEMSDMSFSKDWSFYILAHTEFTPTETDTYACRVKHDSMAEPKTVYWDRDM
chain 5: SIINFEKL
B2: H2-Kb / H6 (parent)
chain 1: AQKVTQTQTSISVMEKTTVTMDCVYETQDSSYFLFWYKQTASGEIVFLIRQDSYKKENATVGHYSLNFQKPKSSIGLIITATQIEDSAVYFCAMRDYNQGKLIFGQGTKLSIKP
chain 2: EAAVTQSPRSKVAVTGGKVTLSCHQTNNHDYMYWYRQDTGHGLRLIHYSYVADSTEKGDIPDGYKASRPSQENFSLILELASLSQTAVYFCASSGTAANSDYTFGSGTRLLVI
chain 3: not shown
chain 4: B1 chain 4
chain 5: SIINFEKL

Variants of: B1
Assay: % of reporter cells activated (NFAT-GFP), raw
Conditions: with B16; scale: % of reporter cells activated
Note: test concentration or dose not given here.

Ratio to parent of substitutions, site by site:
chain 5 N4: D 1.19, W 1.13, M 1.21, V 1.14, C 1.2, Y 0.87, T 1.04, P 1.25, H 1.26, G 1.35, A 1.39, F 0.909, L 1.48, E 1.25, K 1.37, Q 0.992, I 1.25, R 0.969, S 1.09
chain 5 I2: S 1.34, T 1.34, V 1.33, W 1.35, R 0.921, L 1.51, M 1.11, Q 1.21, P 1.48, N 1.26, K 1.52, Y 1.3
chain 5 K7: M 0.921, N 0.823, G 1.06, S 0.657, L 1.03, Y 0.996, W 0.496, I 1.41, V 0.823, E 1.16, P 1.02, T 0.665, H 1.21, R 0.488, A 1.29, C 1.33, F 1.01, Q 1.39, D 0.886
chain 5 L8: H 1.1, Y 1.24, R 1.28, N 0.744, M 0.799, E 0.547, D 0.823, A 0.921, W 0.689, C 0.996, S 0.65, P 1.36, K 0.827, G 1.26, V 0.697, F 0.579, T 0.787, Q 1.04, I 0.602
chain 5 S1: A 1.54, H 1.37, V 1.16, F 1.35, Y 1.56, I 1.35, C 1.57, D 1.29, R 0.846, G 1.43, P 1.3, T 1.36, N 1.09, K 1.38, E 1.26, M 1.08, Q 1.28, W 0.941, L 1.11
chain 5 I3: P 2.05, W 1.08, M 1.4, R 0.807, K 1.44, G 1.22, T 1.24, D 1.13, F 1.11, E 1.3, Y 1.33, L 1.28, H 1.38, V 1.07, N 1.37, C 1.52, S 1.5, Q 1.5, A 1.55

Variants of: B2
Assay: % of reporter cells activated (NFAT-GFP), raw
Conditions: with H6; scale: % of reporter cells activated

Ratio to parent of substitutions, site by site:
chain 5 I3: D 0.149, A 1.33, C 1.57
chain 5 F5: C 1.01, L 0.863, Y 0.516, P 0.546, T 0.694, R 0.248, A 0.809, N 0.446, D 0.192, Q 0.495, I 0.711, S 0.6, V 0.796, H 0.777, E 0.163, W 0.795, M 1.14, G 0.381, K 0.173
chain 5 I2: S 1.56, Q 0.385, N 0.541, E 1.09, R 0.281, F 0.733, Y 0.408, H 0.243, W 0.585, C 1.27, D 1.01, P 0.351, L 1.29, G 0.956, A 1.5, K 0.24, V 1.54, T 1.49, M 0.624
chain 5 E6: D 0.365, F 0.11, T 0.0942, M 0.0896, Q 0.0813, L 0.0813, R 0.097, V 0.0536, N 0.102, H 0.0877, W 0.084, C 0.0748, A 0.0933, I 0.0822, P 0.0822, Y 0.0997, G 0.168, K 0.131, S 0.107
